Laboratory results: patent US20220204581A1, “MONOMERIC PEPTIDE MULTI-AGONIST […] THE GLP1 RECEPTOR AND NPY RECEPTORS” (SYRACUSE UNIVERSITY, published 2022)
Read-outs that look alike come from different tables or passages of the source. Where no end group is shown, it is not given here. The star is where a group is joined. azido = [N-]=[N+]=N*

T1: human NPY2-R (human, UniProt P49146)
T1 sequence: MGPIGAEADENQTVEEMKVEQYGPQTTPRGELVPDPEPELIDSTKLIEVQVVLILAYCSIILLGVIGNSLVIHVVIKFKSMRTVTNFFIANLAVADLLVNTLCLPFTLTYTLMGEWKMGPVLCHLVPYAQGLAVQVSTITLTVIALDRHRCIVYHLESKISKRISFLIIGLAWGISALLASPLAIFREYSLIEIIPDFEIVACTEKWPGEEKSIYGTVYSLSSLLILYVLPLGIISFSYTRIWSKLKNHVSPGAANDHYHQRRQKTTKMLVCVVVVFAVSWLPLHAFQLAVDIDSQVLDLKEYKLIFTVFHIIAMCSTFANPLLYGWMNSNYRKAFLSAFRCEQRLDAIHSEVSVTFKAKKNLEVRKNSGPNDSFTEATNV


What was measured:
human NPY1-R [1] = molecular target: T2, human NPY1-R (human, UniProt P25929)
human NPY1-R [2] = molecular target: T2, human NPY1-R; remark: listed apart in the source
human GLP-1R [3] = molecular target: T3, human GLP-1R (human, UniProt P43220); experiment: cell-based or functional assay
human NPY1-R [4] = molecular target: T2, human NPY1-R; experiment: cell-based or functional assay
human GLP-1R [5] = molecular target: T3, human GLP-1R; experiment: cell-based or functional assay; remark: listed apart in the source
human NPY2-R = molecular target: T1, human NPY2-R; experiment: cell-based or functional assay
human NPY1-R [6] = molecular target: T2, human NPY1-R; experiment: cell-based or functional assay; remark: listed apart in the source

Row | Molecule | EC50 Y1R (human NPY1-R [1]) [nM] | EC50 (agonism of the Y1-R) (human NPY1-R [2]) [nM] | EC50 (human GLP-1R [3]) [nM] | EC50 (agonism of the Y1-R) (human NPY1-R [4]) [nM] | EC50 GLP1R (human GLP-1R [5]) [nM] | EC50 Y2R (human NPY2-R) [nM] | EC50 Y1R (human NPY1-R [6]) [nM]
1 | PYY1-36 (ligand) | 12 | 42 |  |  |  |  | 
2 | HSQGTFTSDLSK(azido)YLEEEAVREFIAWLKNGGPSRHYLNLVTRQRY-NH2 [GEP44] |  |  | 300000 | 83 | 0.33 | 10 | 24
3 | HSQGTFTSDLSK(azido)QINEEEAVRLFIEWLKNGGPSRHYLNLVTRQRY-NH2 [EP44] |  |  |  |  |  |  | > 100
4 | HGEGTFTSDLSKQMEEEAVRLFIEWLKNGGPSSTRQRY (C-terminal amidation; K12-azido modification) [EP38] |  |  |  |  | 0.08 | > 300 | 
